Measurements from paper PMC7337323 (Nature structural & molecular biology, 2020).
Blank lines part the entries; values can stand above or below the molecule they belong to.

T1: full-length CsoS2 (H. neapolitanus) (Halothiobacillus neapolitanus, UniProt O85041 1-869)
T1 sequence (looked up): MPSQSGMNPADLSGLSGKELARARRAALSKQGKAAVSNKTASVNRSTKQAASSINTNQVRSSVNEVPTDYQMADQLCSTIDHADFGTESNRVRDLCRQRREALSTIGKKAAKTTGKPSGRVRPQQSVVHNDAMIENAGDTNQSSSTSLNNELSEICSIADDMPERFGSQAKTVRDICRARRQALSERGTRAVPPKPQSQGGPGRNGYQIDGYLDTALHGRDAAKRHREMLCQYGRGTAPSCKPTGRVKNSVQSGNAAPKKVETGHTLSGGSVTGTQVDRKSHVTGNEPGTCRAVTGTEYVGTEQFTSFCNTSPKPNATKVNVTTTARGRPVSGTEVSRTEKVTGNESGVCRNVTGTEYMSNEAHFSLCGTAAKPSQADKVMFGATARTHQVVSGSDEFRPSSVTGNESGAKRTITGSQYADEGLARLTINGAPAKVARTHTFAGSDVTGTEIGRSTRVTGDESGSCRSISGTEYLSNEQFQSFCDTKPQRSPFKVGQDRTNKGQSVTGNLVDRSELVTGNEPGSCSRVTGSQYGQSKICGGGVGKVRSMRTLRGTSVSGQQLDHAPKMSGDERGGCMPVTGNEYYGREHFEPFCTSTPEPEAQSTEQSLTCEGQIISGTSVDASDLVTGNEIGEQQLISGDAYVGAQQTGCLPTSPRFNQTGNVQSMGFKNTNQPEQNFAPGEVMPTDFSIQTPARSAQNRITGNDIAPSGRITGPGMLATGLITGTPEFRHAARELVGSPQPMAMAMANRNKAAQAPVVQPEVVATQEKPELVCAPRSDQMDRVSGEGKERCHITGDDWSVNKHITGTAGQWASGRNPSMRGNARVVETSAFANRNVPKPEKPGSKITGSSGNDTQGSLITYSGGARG

B1: wild-type H. neapolitanus Rubisco (CbbL8S8) (complex, Halothiobacillus neapolitanus)
chain 1: MAVKKYSAGVKEYRQTYWMPEYTPLDSDILACFKITPQPGVDREEAAAAVAAESSTGTWTTVWTDLLTDMDYYKGRAYRIEDVPGDDAAFYAFIAYPIDLFEEGSVVNVFTSLVGNVFGFKAVRGLRLEDVRFPLAYVKTCGGPPHGIQVERDKMNKYGRPLLGCTIKPKLGLSAKNYGRAVYECLRGGLDFTKDDENINSQPFMRWRDRFLFVQDATETAEAQTGERKGHYLNVTAPTPEEMYKRAEFAKEIGAPIIMHDYITGGFTANTGLAKWCQDNGVLLHIHRAMHAVIDRNPNHGIHFRVLTKILRLSGGDHLHTGTVVGKLEGDRASTLGWIDLLRESFIPEDRSRGIFFDQDWGSMPGVFAVASGGIHVWHMPALVNIFGDDSVLQFGGGTLGHPWGNAAGAAANRVALEACVEARNQGRDIEKEGKEILTAAAQHSPELKIAMETWKEIKFEFDTVDKLDTQNR
chain 2: MAEMQDYKQSLKYETFSYLPPMNAERIRAQIKYAIAQGWSPGIEHVEVKNSMNQYWYMWKLPFFGEQNVDNVLAEIEACRSAYPTHQVKLVAYDNYAQSLGLAFVVYRGN
B2: CbbL (Rubisco large subunit, H. neapolitanus) (natural protein, Halothiobacillus neapolitanus)
chain: B1 chain 1
B3: [N1]-GFP (single CsoS2 N-peptide repeat N1 fused to GFP) (domain or fragment)
chain: PSQSGMNPADLSGLSGKELARARRAALSKQGKAAVSNKTASVNRSTKQAASSINTNQVRSSVNEVPTDYQMADQLCSTIDHADFGTESNRV
modifications: CsoS2 part of Supplementary Table 1 construct; His tag, TEV site, linker, sfGFP and StrepII left out

Key:
[1] = molecular target: N*-polyPro (N* consensus peptide on a polyproline II helix); test: BLI
[2] = molecular target: T1, full-length CsoS2 (H. neapolitanus); test: native gel or EMSA
[3] = molecular target: the molecule itself; test: crystal structure
[4] = molecular target: B1; test: MST

Kd [1]: 0.1 µM
Molecule: wild-type H. neapolitanus Rubisco (CbbL8S8) (from UniProt O85040 1-473; P45686 1-110) (complex)

Molecule: B1
binding result [2]: binds

Molecule: B2
binding result [3]: binds

Molecule: B3
Kd [4]: > 1000 µM
